Numbering of substitutions follows the chain as printed.
T1: human BCMA (human, UniProt Q02223 1-54)
T1 construct: also called huBCMA; hBCMA
T1 sequence: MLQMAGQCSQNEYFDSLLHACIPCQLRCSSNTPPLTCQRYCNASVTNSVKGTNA

B1: L3.PY/H2.DY (antibody, V domains shown)
VH: EVQLLESGGGLVQPGGSLRLSCAASGFTFGSYAMTWVRQAPGKGLEWVSAIDYSGGNTFYADSVKGRFTISRDNSKNTLYLQMNSLRAEDTAVYYCARVSPIASGMDYWGQGTLVTVSS
VL: EIVLTQSPGTLSLSPGERATLSCRASQSVSSSYLAWYQQKPGQAPRLLIYGASSRATGIPDRFSGSGSGTDFTLTISRLEPEDFAVYYCQHYPYPPSFTFGQGTKVEIK
notes: IgG in the assay
B2: L3.PY/H2.HA (antibody, V domains shown)
VH: B1 VH with D52S, Y53H, S54A
VL: B1 VL
notes: IgG in the assay
B3: L3.PY/H2.LT (antibody, V domains shown)
VH: B1 VH with D52S, Y53L, S54T
VL: B1 VL
notes: IgG in the assay
B4: L3.PY/H2.QL (antibody, V domains shown)
VH: B1 VH with D52S, Y53G, S63Q, V64L
VL: B1 VL
notes: IgG in the assay
B5: L3.PY/H2.QR (antibody, V domains shown)
VH: B1 VH with D52S, Y53G, S63Q, V64R
VL: B1 VL
notes: IgG in the assay
B6: L3.PY/H2.YQ (antibody, V domains shown)
VH: B1 VH with D52S, S54Q
VL: B1 VL
notes: IgG in the assay
B7: L3.PY/H3.AE (antibody, V domains shown)
VH: B1 VH with D52S, Y53G, S104A, G105E
VL: B1 VL
notes: IgG in the assay
B8: L3.PY/H3.AQ (antibody, V domains shown)
VH: B1 VH with D52S, Y53G, S104A, G105Q
VL: B1 VL
notes: IgG in the assay
B9: L3.PY/H3.TAQ (antibody, V domains shown)
VH: B1 VH with D52S, Y53G, A97T, S104A, G105Q
VL: B1 VL
notes: IgG in the assay; also called P6E01 L3PY/H3TAQ
B10: L3.PY/H3.YA (antibody, V domains shown)
VH: B1 VH with D52S, Y53G, A103Y, S104A
VL: B1 VL
notes: IgG in the assay
B11: L3.PY/L1.AH/H2.DY (antibody, V domains shown)
VH: B1 VH
VL: B1 VL with S31A, S32H
notes: IgG in the assay
B12: L3.PY/L1.AH/H2.HA (antibody, V domains shown)
VH: B1 VH with D52S, Y53H, S54A
VL: B1 VL with S31A, S32H
notes: IgG in the assay
B13: L3.PY/L1.AH/H2.LT (antibody, V domains shown)
VH: B1 VH with D52S, Y53L, S54T
VL: B1 VL with S31A, S32H
notes: IgG in the assay
B14: L3.PY/L1.AH/H2.QL (antibody, V domains shown)
VH: B1 VH with D52S, Y53G, S63Q, V64L
VL: B1 VL with S31A, S32H
notes: IgG in the assay
B15: L3.PY/L1.AH/H3.TAQ (antibody, V domains shown)
VH: B1 VH with D52S, Y53G, A97T, S104A, G105Q
VL: B1 VL with S31A, S32H
notes: IgG in the assay
B16: L3.PY/L1.FF/H2.DY (antibody, V domains shown)
VH: B1 VH
VL: B1 VL with S32F, Y33F
notes: IgG in the assay
B17: L3.PY/L1.FF/H2.HA (antibody, V domains shown)
VH: B1 VH with D52S, Y53H, S54A
VL: B1 VL with S32F, Y33F
notes: IgG in the assay
B18: L3.PY/L1.FF/H2.LT (antibody, V domains shown)
VH: B1 VH with D52S, Y53L, S54T
VL: B1 VL with S32F, Y33F
notes: IgG in the assay
B19: L3.PY/L1.FF/H2.QL (antibody, V domains shown)
VH: B1 VH with D52S, Y53G, S63Q, V64L
VL: B1 VL with S32F, Y33F
notes: IgG in the assay
B20: L3.PY/L1.FF/H2.QR (antibody, V domains shown)
VH: B1 VH with D52S, Y53G, S63Q, V64R
VL: B1 VL with S32F, Y33F
notes: IgG in the assay
B21: L3.PY/L1.FF/H2.YQ (antibody, V domains shown)
VH: B1 VH with D52S, S54Q
VL: B1 VL with S32F, Y33F
notes: IgG in the assay
B22: L3.PY/L1.FF/H3.AE (antibody, V domains shown)
VH: B1 VH with D52S, Y53G, S104A, G105E
VL: B1 VL with S32F, Y33F
notes: IgG in the assay
B23: L3.PY/L1.FF/H3.AQ (antibody, V domains shown)
VH: B1 VH with D52S, Y53G, S104A, G105Q
VL: B1 VL with S32F, Y33F
notes: IgG in the assay
B24: L3.PY/L1.FF/H3.TAQ (antibody, V domains shown)
VH: B1 VH with D52S, Y53G, A97T, S104A, G105Q
VL: B1 VL with S32F, Y33F
notes: IgG in the assay
B25: L3.PY/L1.FF/H3.YA (antibody, V domains shown)
VH: B1 VH with D52S, Y53G, A103Y, S104A
VL: B1 VL with S32F, Y33F
notes: IgG in the assay
B26: L3.PY/L1.PH/H2.HA (antibody, V domains shown)
VH: B1 VH with D52S, Y53H, S54A
VL: B1 VL with S31P, S32H
notes: IgG in the assay
B27: L3.PY/L1.PH/H2.QR (antibody, V domains shown)
VH: B1 VH with D52S, Y53G, S63Q, V64R
VL: B1 VL with S31P, S32H
notes: IgG in the assay
B28: L3.PY/L1.PH/H3.AE (antibody, V domains shown)
VH: B1 VH with D52S, Y53G, S104A, G105E
VL: B1 VL with S31P, S32H
notes: IgG in the assay
B29: L3.PY/L1.PH/H3.AQ (antibody, V domains shown)
VH: B1 VH with D52S, Y53G, S104A, G105Q
VL: B1 VL with S31P, S32H
notes: IgG in the assay
B30: L3.PY/L1.PH/H3.TAQ (antibody, V domains shown)
VH: B1 VH with D52S, Y53G, A97T, S104A, G105Q
VL: B1 VL with S31P, S32H
notes: IgG in the assay
B31: L3.PY/L3.KF/H2.DY (antibody, V domains shown)
VH: B1 VH
VL: B1 VL with Q90K, H91F
notes: IgG in the assay
B32: L3.PY/L3.KF/H2.LT (antibody, V domains shown)
VH: B1 VH with D52S, Y53L, S54T
VL: B1 VL with Q90K, H91F
notes: IgG in the assay
B33: L3.PY/L3.KF/H2.QL (antibody, V domains shown)
VH: B1 VH with D52S, Y53G, S63Q, V64L
VL: B1 VL with Q90K, H91F
notes: IgG in the assay
B34: L3.PY/L3.KF/H2.YQ (antibody, V domains shown)
VH: B1 VH with D52S, S54Q
VL: B1 VL with Q90K, H91F
notes: IgG in the assay
B35: L3.PY/L3.KF/H3.AE (antibody, V domains shown)
VH: B1 VH with D52S, Y53G, S104A, G105E
VL: B1 VL with Q90K, H91F
notes: IgG in the assay
B36: L3.PY/L3.KF/H3.AQ (antibody, V domains shown)
VH: B1 VH with D52S, Y53G, S104A, G105Q
VL: B1 VL with Q90K, H91F
notes: IgG in the assay
B37: L3.PY/L3.KF/H3.TAQ (antibody, V domains shown)
VH: B1 VH with D52S, Y53G, A97T, S104A, G105Q
VL: B1 VL with Q90K, H91F
notes: IgG in the assay
B38: L3.PY/L3.KF/H3.YA (antibody, V domains shown)
VH: B1 VH with D52S, Y53G, A103Y, S104A
VL: B1 VL with Q90K, H91F
notes: IgG in the assay
B39: L3.PY/L3.KY/H2.DY (antibody, V domains shown)
VH: B1 VH
VL: B1 VL with Q90K, H91Y
notes: IgG in the assay
B40: L3.PY/L3.KY/H2.HA (antibody, V domains shown)
VH: B1 VH with D52S, Y53H, S54A
VL: B1 VL with Q90K, H91Y
notes: IgG in the assay
B41: L3.PY/L3.KY/H2.LT (antibody, V domains shown)
VH: B1 VH with D52S, Y53L, S54T
VL: B1 VL with Q90K, H91Y
notes: IgG in the assay
B42: L3.PY/L3.KY/H2.QL (antibody, V domains shown)
VH: B1 VH with D52S, Y53G, S63Q, V64L
VL: B1 VL with Q90K, H91Y
notes: IgG in the assay
B43: L3.PY/L3.KY/H2.QR (antibody, V domains shown)
VH: B1 VH with D52S, Y53G, S63Q, V64R
VL: B1 VL with Q90K, H91Y
notes: IgG in the assay
B44: L3.PY/L3.KY/H2.YQ (antibody, V domains shown)
VH: B1 VH with D52S, S54Q
VL: B1 VL with Q90K, H91Y
notes: IgG in the assay
B45: L3.PY/L3.KY/H3.TAQ (antibody, V domains shown)
VH: B1 VH with D52S, Y53G, A97T, S104A, G105Q
VL: B1 VL with Q90K, H91Y
notes: IgG in the assay
B46: L3.PY/L3.KY/H3.YA (antibody, V domains shown)
VH: B1 VH with D52S, Y53G, A103Y, S104A
VL: B1 VL with Q90K, H91Y
notes: IgG in the assay

What was measured:
[1] = biological target: T2, cyBCMA (cynomolgus, UniProt A0A2K5UD97 1-53); experiment: SPR, immobilised IgG, 37° C
T2 construct: Soluble analyte in SPR; construct not described; also called cyno BCMA
T2 sequence (A0A2K5UD97 entry or part of it): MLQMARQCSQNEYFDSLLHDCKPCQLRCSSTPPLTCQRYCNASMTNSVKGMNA

[2] = biological target: T1, human BCMA; experiment: SPR, immobilised IgG, 37° C

Binder	T½ [1] [min]	T½ [2] [min]
B1	1.87	8.37
B2	1.53	7.89
B3	1.53	8.95
B4	0.91	5.31
B5	1.76	9.75
B6	1.86	7.41
B7	2.29	8.32
B8	2.14	6.69
B9	2.64	10.1
B10	2.14	9.82
B11	2.56	7.62
B12	2.63	6.37
B13	3.91	9.38
B14	1.21	7.22
B15	–	9.68
B16	–	4.27
B17	–	5.29
B18	–	6.92
B19	–	8.28
B20	–	6.54
B21	–	7.61
B22	–	4.39
B23	–	7.51

Binder	T½ [1] [min]	T½ [2] [min]
B24	–	6.12
B25	–	6.41
B26	–	9.99
B27	–	4.89
B28	–	8.61
B29	–	7.27
B30	–	5.43
B31	–	6.35
B32	–	6.05
B33	–	9.26
B34	–	5.18
B35	–	7.44
B36	–	5.09
B37	–	7.12
B38	–	7.85
B39	–	18
B40	–	7.1
B41	–	12.8
B42	–	5.56
B43	–	11.7
B44	–	7.02
B45	–	17.8
B46	–	12.7

Source: patent US20240018252A1 (Pfizer, published 2024)
